Measured values: patent US20210061908A1 (IOMX THERAPEUTICS, published 2021)

Experiments:
[1] = target: T1, extracellular domain (ECD) of murine IGSF11, biotinylated (mouse, UniProt P0C673 23-240, biotinylated (site not stated)); assay: ELISA, scFv; RFU grade (*** >1.0, ** 0.5-1.0, * 0.1-0.5)
T1 construct: also called Mouse IGSF11; murine IGSF11 protein
T1 sequence: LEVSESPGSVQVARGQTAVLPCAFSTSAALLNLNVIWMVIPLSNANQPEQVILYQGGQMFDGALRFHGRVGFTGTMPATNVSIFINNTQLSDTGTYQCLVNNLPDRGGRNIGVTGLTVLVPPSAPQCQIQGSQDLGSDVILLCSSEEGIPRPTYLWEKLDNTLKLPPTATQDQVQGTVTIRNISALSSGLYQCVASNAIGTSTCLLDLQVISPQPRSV

[2] = target: T2, extracellular domain (ECD) of human IGSF11 (VSIG3), biotinylated (human, UniProt Q5DX21 23-241, biotinylated (site not stated)); assay: as above
T2 construct: also called human IGSF11 protein
T2 sequence: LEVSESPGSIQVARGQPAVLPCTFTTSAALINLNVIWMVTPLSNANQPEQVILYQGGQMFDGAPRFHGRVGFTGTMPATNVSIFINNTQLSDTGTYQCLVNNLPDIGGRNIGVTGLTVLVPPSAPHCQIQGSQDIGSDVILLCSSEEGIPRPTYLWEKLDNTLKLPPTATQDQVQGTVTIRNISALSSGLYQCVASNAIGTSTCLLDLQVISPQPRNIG

B1: A-033 (scFv format) (scFv, V domains shown)
VH: QVQLVQSGAEVKKPGASVKVSCKASGYTFTSYGISWVRQAPGQGLEWMGWISAYNGNTNYAQKLQGRVTMTTDTSTSTAYMELRSLRSDDTAVYYCARDHSIVGATTFDYWGQGTLVTVSS
VL: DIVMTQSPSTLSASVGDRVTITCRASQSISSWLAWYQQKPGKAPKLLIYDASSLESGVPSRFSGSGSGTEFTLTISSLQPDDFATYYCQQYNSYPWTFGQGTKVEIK
notes: scFv
relative fluorescent units (RFU), ELISA [1]: 0.1 to 0.5 rfu
relative fluorescent units (RFU), ELISA [2]: 0.1 to 0.5 rfu

B2: A-031 (scFv format) (scFv, V domains shown)
VH: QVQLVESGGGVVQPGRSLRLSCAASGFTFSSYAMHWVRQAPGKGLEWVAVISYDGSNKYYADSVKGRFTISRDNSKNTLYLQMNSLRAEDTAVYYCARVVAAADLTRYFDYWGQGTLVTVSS
VL: EIVLTQSPGTVSLSPGERATLSCRASQSVPKNYLAWFQQKPGQAPRLVIHTASSRAPGIPDRFTGSGSGTDFTLTISRLEPEDFAVYYCQQYGTSPNTFGQGTKLDIK
notes: scFv
relative fluorescent units (RFU), ELISA [1]: 0.1 to 0.5 rfu
relative fluorescent units (RFU), ELISA [2]: 0.1 to 0.5 rfu

B3: A-004 (scFv format) (scFv, V domains shown)
VH: EVQLVESGGGLVKPGGSLRLSCAASGFTFSSYSMNWVRQAPGKGLEWVSSISSSSSYIYYADSVKGRFTISRDNAKNSLYLQMNSLRAEDTAVYYCARGQLLWFGESALIDAFDIWGQGTMVTVSS
VL: EIVLTQSPSSLSASVGDRVTITCRASQSISSYLNWYQLKPGKAPKLLIYAASILQSGVPSRFSGSGSGTDFTLTISSLQPEDFAAYYCQQSYSTPRTFGQGTKLEIK
notes: scFv
relative fluorescent units (RFU), ELISA [1]: > 1 rfu
relative fluorescent units (RFU), ELISA [2]: 0.5 to 1 rfu

B4: A-012 (scFv format) (scFv, V domains shown)
VH: EVQLLESGGGLIQPGGSLRLSCAVSGFTVSSNYMSWVRQAPGKGLEWVSVIYSGGSTYYADSVKGRFTISRDNSKNTLYLQMNSLRAEDTAVYYCARGNPYYYGDLQVNFDYWGQGTLVTVSS
VL: QAVVTQEPSLTVSPGGTVTLTCASSTGAVTSGYYPNWFQQKPGQAPRALIYSTSNKHSWTPARFSGSLLGGKAALTLSGVQPEDEAEYYCLLYYGGAWVFGGGTKLTVL
notes: scFv
relative fluorescent units (RFU), ELISA [1]: 0.5 to 1 rfu
relative fluorescent units (RFU), ELISA [2]: 0.5 to 1 rfu

B5: A-006 (scFv format) (scFv, V domains shown)
VH: EVQLVESGGGLIQPGGSLRLSCAASGFTVSSNYMSWVRQAPGKGLEWVSVIYSGGSTYYADSVKGRFTISRDNSKNTLYLQMNSLRAEDTAVYYCARGNPYYYGDLQVNFDYWGQGTLVTVSS
VL: QAVVTQEPSLTVSPGGTVTLTCASSTGAVTSGYYPNWFQQKPGQAPRPLIYSTSNKHSWTPARFSGSLLGGKAALTLSGVQPDDEAEYYCLLYYGGDWVFGGGTKLTVL
notes: scFv
relative fluorescent units (RFU), ELISA [1]: 0.5 to 1 rfu
relative fluorescent units (RFU), ELISA [2]: 0.5 to 1 rfu

B6: A-005 (scFv format) (scFv, V domains shown)
VH: EVQLVESGGGLIQPGGSLRLSCAASGFTVSSNYMSWVRQAPGKGLEWVSVIYSGGSTYYADSVKGRFTISRDNSKNTLYLQMNSLRAEDTAVYYCARGNPYYYGDLQVNFDYWGQGTLVTVSS
VL: QAVVTQEPSLTVSPGETVTLTCASSTGAVTSGYYPNWFQQRPGQAPRALIYSTSNKDSWTPARFSGSLLGGKAALTLSGVQPEDEAEYYCLLYYGGAWVFGGGTKLTVL
notes: scFv
relative fluorescent units (RFU), ELISA [1]: 0.1 to 0.5 rfu
relative fluorescent units (RFU), ELISA [2]: 0.5 to 1 rfu

B7: A-013 (scFv format) (scFv, V domains shown)
VH: EVQLVESGGGLIQPGGSLRLSCAASGFTVSSNYMSWVRQAPGKGLEWVSVIYSGGSTYYADSVKGRFTISRDNSKNTLYLQMNSLRAEDTAVYYCARGNPYYYGDLQVNFDYWGQGTLVTVSS
VL: QAVVTQEPSLTVSPGGTVTLTCASSTGAVTSAYYPNWFQQKPGQAPRALIYSTSNKHSWTPARFSGSLLGGKAALTLSGVQPEDEADYYCLLYYGGAWVFGGGTKLTVL
notes: scFv
relative fluorescent units (RFU), ELISA [1]: 0.5 to 1 rfu
relative fluorescent units (RFU), ELISA [2]: 0.5 to 1 rfu

B8: A-002 (scFv format) (scFv, V domains shown)
VH: EVQLVESGGGLIQPGGSLRLSCAASGFTVSSNYMSWVRQAPGKGLEWVSVIYSGGSTYYADSVKGRFTISRDNSKNTLYLQMNSLRAEDTAVYYCARGNPYYYGDLQVNFDYWGQGTLVTVSS
VL: QAVVTQEPSLTVSPGGTVTPTCGSSTGAVTSGNLPNWFQQKPGQAPRALIYSTSNKHSWTPARISGSLLGGKAALTLSGVQPEDEAEYYCLLYYGGAWVFGGGTKLTVL
notes: scFv
relative fluorescent units (RFU), ELISA [1]: 0.1 to 0.5 rfu
relative fluorescent units (RFU), ELISA [2]: 0.5 to 1 rfu

B9: A-032 (scFv format) (scFv, V domains shown)
VH: QVQLVQSGAEVKKPGASVKVSCKASGYTFTGYYMHWVRQAPGQGLEWMGWMNPNSGNTGYAQKFQGRVTMTRNTSISTAYMELSSLRSEDTAVYYCARGGQQQLVLDDYWGQGTLVTVSS
VL: not shown
relative fluorescent units (RFU), ELISA [1]: 0.1 to 0.5 rfu
relative fluorescent units (RFU), ELISA [2]: 0.1 to 0.5 rfu

B10: A-037 (scFv format) (scFv, V domains shown)
VH: QVQLVQSGAEVKKPGASVKVSCKASGYTFTGYYMHWVRQAPGQGLEWMGWINPNSGNTGYAQKFQGRVTMTRNTSISTAYMELSSLRSEDTAVYYCARGGQQQLVLDDYWGQGTLVTVSS
VL: NFMLTQPHSVSESPGKTVTISCTGSSGSIASNYVQWYQQRPGSAPTTVIYEDNQRPSGVPDRFSGSIDSSSNSASLTISGLKTEDEADYYCQSYDSSNQRVFGGGTKLTVL
notes: scFv
relative fluorescent units (RFU), ELISA [1]: 0.1 to 0.5 rfu
relative fluorescent units (RFU), ELISA [2]: 0.1 to 0.5 rfu

B11: A-030 (scFv format) (scFv, V domains shown)
VH: QVQLVQSGAEVKKPGASVKVSCKASGYTFTGYYMHWVRQAPGQGLEWMGWINPNSGNTGYAQKFQGRVTMTRNTSISTAYMELSSLRSEDTAVYYCARGGQQQLVLDDYWGQGTLVTVSS
VL: DIQLTQSPSTLSASVGDRVTITCRASQSIGGWLAWYQHKPGKAPKLLIYAASSLQSGVPSRFSGSGSGTDFTLTISSLQPEDFATYYCRQSYSTPPTFGQGTKVEIK
notes: scFv
relative fluorescent units (RFU), ELISA [1]: 0.1 to 0.5 rfu
relative fluorescent units (RFU), ELISA [2]: 0.1 to 0.5 rfu

B12: A-036 (scFv format) (scFv, V domains shown)
VH: QVQLVQSGAEVKKPGASVKVSCKASGYTFTGYYMHWVRQAPGQGLEWMGWINPNSGGTNYAQKFQGRVTMTRNTSISTAYMELSSLRSEDTAVYYCARGGQQQLVLDDYWGQGTLVTVSS
VL: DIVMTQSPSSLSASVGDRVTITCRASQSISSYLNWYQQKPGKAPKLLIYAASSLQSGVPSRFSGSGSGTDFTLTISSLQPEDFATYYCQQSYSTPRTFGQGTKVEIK
notes: scFv
relative fluorescent units (RFU), ELISA [1]: 0.1 to 0.5 rfu
relative fluorescent units (RFU), ELISA [2]: 0.1 to 0.5 rfu

B13: A-034 (scFv format) (scFv, V domains shown)
VH: QMQLVQSGGGLVKPGGSLRLSCAASGFTFSSYTMNWVRQAPGKGLEWVSSISSIGTYIYYADSVKGRFTISRDNAKNSLYLQMNSLRAEDTAVYYCARVLLSGSYYGYFDSWGQGTLVTVSS
VL: QSVLTQPPSVSGAPGQRVTISCTGSSSNIGAGYDVHWYQQLPGTAPKLFIYGNSNRPSGVPDRFSGSKSGTSASLAITGLQAEDEADYYCQSYDSSLSGYVFGTGTKVTVL
notes: scFv
relative fluorescent units (RFU), ELISA [1]: 0.5 to 1 rfu
relative fluorescent units (RFU), ELISA [2]: > 1 rfu

B14: A-007 (scFv format) (scFv, V domains shown)
VH: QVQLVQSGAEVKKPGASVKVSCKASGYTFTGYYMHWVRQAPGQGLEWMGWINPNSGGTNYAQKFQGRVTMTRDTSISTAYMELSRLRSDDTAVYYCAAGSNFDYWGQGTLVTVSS
VL: QSALTQPASVSGSPGQSITIACTGSSSDIGSFSYVSWYQQRPGKAPTLIIYGVNNRPLGVSRRFSGSKSGNTASLSISGLQAEDEADYYCSSYTRRSTVIFGGGTKLTVL
notes: scFv
relative fluorescent units (RFU), ELISA [1]: 0.5 to 1 rfu
relative fluorescent units (RFU), ELISA [2]: 0.5 to 1 rfu

B15: A-009 (scFv format) (scFv, V domains shown)
VH: QVQLVQSGAEVKKPGSSVKVSCKASGGTFSSYAISWVRQAPGQGLEWMGGIIPIFGTANYAQKFQGRVTITADESTSTAYMELSSLRSEDTAVYYCARGRGFGELYFDYWGQGTLVTVSS
VL: ETTLTQSPATLSVSPGERATLSCRASQGVRSNIAWYQQKPGQAPRLLIYDSSTRATGIPARFSGSGSGTEFTLTISSLQSEDFAVYSCQQYKNWPRTFGQGTKVEIK
notes: scFv
relative fluorescent units (RFU), ELISA [1]: 0.1 to 0.5 rfu
relative fluorescent units (RFU), ELISA [2]: 0.5 to 1 rfu

B16: A-001 (scFv format) (scFv, V domains shown)
VH: EVQLVESGGGLVKPGGSLRLSCAASGFTFSSYSMNWVRQAPGKGLEWVSSISSSSSYIYYADSVKGRFTISRDNAKNSLYLQMNSLRAEDTAVYYCVRSIIVQALGITSVFDIWGQGTMVTVSS
VL: AIRLTQSPSSLSASVGDRVTISCRASQIISNHLNWYQQKPGKAPKLLIYAASRLQTGVPSRFSGSGSETDYTLTISSLQPEDFATYYCQQSYSNPRTFGHGTKVEIK
notes: scFv
relative fluorescent units (RFU), ELISA [1]: > 1 rfu
relative fluorescent units (RFU), ELISA [2]: > 1 rfu

B17: A-035 (scFv format) (scFv, V domains shown)
VH: QVQLVQSGAEVKKPGASVKVSCKASGYTFTGYYMHWVRQAPGQGLEWMGWINPNSGNTGYAQKFQGRVTMTRNTSISTAYMELSSLRSEDTAVYYCARGRLERGYWYFDLWGRGTLVTVSS
VL: NFMLTQPHSVSESPGRTVTISCTRSSGSITSNYVQWYQQRPGSAPTILIYEDKERPSEVPDRFSGSIDISSNSASLTISGLKTEDEADYYCQSYGGTSQGVLFGGGTKVTVL
notes: scFv
relative fluorescent units (RFU), ELISA [1]: > 1 rfu
relative fluorescent units (RFU), ELISA [2]: 0.5 to 1 rfu

B18: A-008 (scFv format) (scFv, V domains shown)
VH: QLQLQESGPGLVKPSETLSLTCTVSGGSISSSGYYWGWIRQPPGKGLEWIGSIYYSGSTYYNPSLKSRVTISVDTSKNQFSLKLSSVTAADTAVYYCARHRVRFGEFDAFDIWGQGTMVTVSS
VL: QAVLTQPPSVSGAPGERVTLSCTGTSSNVGADFDVHWYQQFPGTAPRLLIFGSDNRPSGVPDRFSGSKSGTSASLAITGLQVEDEADYYCQAYDVRLSGWVFGGGTKLTVL
notes: scFv
relative fluorescent units (RFU), ELISA [1]: > 1 rfu
relative fluorescent units (RFU), ELISA [2]: > 1 rfu
